The values that follow are results of earlier work, collected in patent publication US7897835B2, “Expression vectors pSSA-K and pSSA-H for expression of SOD and APX in plants to provide stress tolerance” (Korea Research Institute of Bioscience and Biotechnology, priority 2004, dated 2011).

The test system of this series is tobacco protoplast. To be noted: transient assay with GUS protein.

B1: SWPA2 promoter: oxidative stress inducible peroxidase promoter isolated from sweetpotato (Ipomoea batatas), SEQ. ID. No 15 (nucleic acid)
DNA: AAGCTTCCATGATCAGATCGATAATACCAAATGGTACCACCTAACTAGGTGATATATATTATGTATGTCATTATTTTAAACTGTATTACAAAGACTATTTTTTCATTAATTGGTACAAAGAAAAATTAAACAGAAAAGAAAGGAAAAAATGACTCACCACCTAGCACCTAGACACCTAGACACCAAGTACCCAAACCCTCTATTTTCAACATCTATTTTCAGATGTAAATATGAGTTGGACGAAGAAGGTGTTAGCAATTATTTGATTAATCTTGCTACGATAATTATGATCCACTCACTTAGTCATTTTTTTCAGACCAAGACAACTAGCTTGAGTTTTTTATTGTATGTGGTCGGAACGTTTTTTGTAATTAAAAAAATAAAAGTTGCATCATTATATATGGTAGATTAAGTAATTGATCAATCAACGTTTAATTTTGCATTTATCGGCAAGGTGGAGGTTCCAACTTCCAGTCGAACTTAGAGAGTCATTGGAGACCTTGACCAGTTAACTAGCGGTGTCGAAAACCTGCACAACTTGAGATTTAATTGCATACCTTTTATATATGACGCGTTTTATTTTTTTTTCCTAGAAAATAATTTGGAAGAAAATAAGAATATGTATTCTGTGAAAGCTAGGCCAAAACGAATGTCTTTTCGTCGTTTTCGTTAAAGGTTTAGATCATATTTCATCTGGTCCAACACTCAAACTTGTATAATGGACGAATTATTAGTCATTTTAGACCTACCGGCTAGCGCGACTTTTTTGTTTTCCATAAAGATTCGATAATTGCATGGCCAGATGCAAAGTTTGAAATTTAATGTTTGCCAAATCCTATCATACACCACAACACATGTCTCAGGGCCAAGTGGCACCAGCAAACATTCCTGTCATAATTAATTTTTTTAATGAGAAGGAGGAAACTCACAGCTATTACTCGAAGGTATATAATATTGAGTAAATCTTACTTTGTGATTCTAGTTGACAAAACACCGCAAGATAAACTATACTAAGTTCAAATCACCTCACCGGGTTGGCTCAGATTGGTTTTTTCAATACAAGAGGGGGTGTGAACTCCCGTGCCGACCTCTTTTGAGGGACAATAATGTACGGTCACGCCAACCTAGCTTGATTTTTTCTGACAAATATATTACTACATATATTACACGGTCAAATAATTAATCAAAAAATAAAAAAAGACCCCAATTAAAGTCCCCAACCACTCTCAAATATTCTATTTAAGGGAAACCTTAGAGGCAATTCATGCATCCTCAACCCCTTCTTCTTCATTTTCTTAATCTTACATTTTCCTTTGACCCTCGAG
modifications: Ipomoea batatas
Consider B1, for which the “promoter activity relative to CaMV 35S promoter” value is “at least 30 fold”.
